Changes are numbered by the printed parent chain. Names and notes keep the numbering of the source.
How the values were obtained:
[1] = biological target: T1, LexA fused wild-type UVR8 (UV … LOCUS 8) (Arabidopsis thaliana), Q9FN03; test: SDS-PAGE of unboiled extracts with immunoblot; total protein extracts of yeast EGY48 expressing LexA-UVR8, kept on ice under −UV-B or +UV-B for 20 min, loaded without boiling, anti-LexA immunoblot; details: remark: other sources report otherwise
T1 chain: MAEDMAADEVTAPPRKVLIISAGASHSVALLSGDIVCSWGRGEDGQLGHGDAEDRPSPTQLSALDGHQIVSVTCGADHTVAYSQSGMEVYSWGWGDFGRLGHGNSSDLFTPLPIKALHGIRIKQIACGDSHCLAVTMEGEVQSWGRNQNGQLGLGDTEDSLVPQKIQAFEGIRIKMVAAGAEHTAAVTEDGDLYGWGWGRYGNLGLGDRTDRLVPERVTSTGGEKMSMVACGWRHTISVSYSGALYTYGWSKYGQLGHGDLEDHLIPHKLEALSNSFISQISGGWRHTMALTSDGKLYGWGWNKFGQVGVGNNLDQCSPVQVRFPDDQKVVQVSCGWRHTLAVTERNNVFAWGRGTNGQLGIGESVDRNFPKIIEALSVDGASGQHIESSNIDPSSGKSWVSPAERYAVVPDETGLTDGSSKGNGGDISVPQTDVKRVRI

[2] = biological target: T2, YFP-UVR8^WT (proUVR8-YFP-UVR8/uvr8-6) (Arabidopsis thaliana), Q9FN03; test: SDS-PAGE of unboiled extracts with immunoblot; total protein extracts of 4-day-old transgenic seedlings grown under −UV-B or +UV-B, extracts kept on ice under the same condition for 30 min, loaded without boiling, anti-GFP immunoblot; details: remark: other sources report otherwise
T2 chain: T1 chain

[3] = biological target: the molecule itself; test: SDS-PAGE of unboiled extracts with immunoblot; total protein extracts of yeast EGY48 expressing LexA-UVR8, kept on ice under −UV-B or +UV-B for 20 min, loaded without boiling, anti-LexA immunoblot
[4] = biological target: the molecule itself; test: SDS-PAGE of unboiled extracts with immunoblot; total protein extracts of 4-day-old transgenic seedlings grown under −UV-B or +UV-B, extracts kept on ice under the same condition for 30 min, loaded without boiling, anti-GFP immunoblot

B1: LexA fused wild-type UVR8 (UV … LOCUS 8), Q9FN03 1-440 (natural protein)
chain: T1 chain
Q: For B1, which stoichiometry N [1] is on record?
A: 2

B2: YFP-UVR8^WT (proUVR8-YFP-UVR8/uvr8-6), Q9FN03 1-440 (natural protein)
chain: T1 chain
Q: For B2, which stoichiometry N [2] is on record?
A: 2

B3: LexA fused UVR8^W285F (natural protein, Arabidopsis thaliana, UniProt Q9FN03 1-440, looked up)
chain: T1 chain with W285F
notes: UV … LOCUS 8 (UVR8), Arabidopsis thaliana; also called mUVR8; source: yeast strain EGY48, LexA fusion; in total protein extract (dimer/monomer assay) and yeast two-hybrid fusion
Q: Which “stoichiometry N” value [3] does the source give for B3 here?
A: 2

B4: YFP-UVR8^W285F (proUVR8-YFP-UVR8^W285F/uvr8-6) (natural protein, Arabidopsis thaliana, UniProt Q9FN03 1-440, looked up)
chain: T1 chain with W285F
notes: UV … LOCUS 8 (UVR8), Arabidopsis thaliana; The N-terminal place of YFP is read from the construct's name; source: transgenic Arabidopsis (native UVR8 promoter, uvr8-6 background), 4-day-old seedlings, in total protein extract; not shown: YFP, N-terminal, kept
Q: With B4 as the binder, how does the “stoichiometry N” value [4] read?
A: 2

Source: article PMC3961177, “Photoactivated UVR8-COP1 Module Determines Photomorphogenic UV-B Signaling Output in Arabidopsis” (PLoS Genetics, 2014)
